For orientation: koff means a measure of how fast the partners let go of each other. In general, kon refers to the second-order rate constant of association.

Data on seven molecules can be found in patent US8420051B2, “Muteins of hNGAL and related proteins with affinity for a given target” (Technische Universitaet Meunchen, priority 2008, dated 2013).

Like-named read-outs stand apart in the source and are kept apart here.

Experiment [1] concerns the target human neutrophil gelatinase-associated lipocalin (hNGAL, Lcn2, P80188), wild type (Homo sapiens, UniProt P80188). The settings on record: cited from earlier work.
Experiment [2] deals with T1, hNGAL mutein C26, SEQ ID NO: 10 (Yd5 + L42P/P48L/Q49L/I55T/K75M) (Homo sapiens, UniProt P80188, C107S/D97E/I100T/I61A/I75T/K154S/K95M/L56R/L62P/L90R/P68L/Q48H/Q69L/R101M/S147Q/S88A/T156S/T165A/T74Q/V53Q/W99L/Y158L/Y72T).
T1 construct: the mature hNGAL protein and the C-terminal Strep-tag II; OmpA signal peptide (N, cleaved yes); made in house; host or cells: E. coli BL21 or TG1-F- (periplasm), plasmid pNGAL15
T1 sequence (P80188 21-198 with the stated changes): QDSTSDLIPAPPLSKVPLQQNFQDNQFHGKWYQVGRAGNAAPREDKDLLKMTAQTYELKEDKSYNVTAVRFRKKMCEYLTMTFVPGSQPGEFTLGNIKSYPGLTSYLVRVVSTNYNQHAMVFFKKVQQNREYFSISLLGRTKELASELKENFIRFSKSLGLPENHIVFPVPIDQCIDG
Type of experiment: binding. The settings on record: read-out: Kg (from half-maximal free metal chelate concentration).

In experiment [3] the target is T2, human neutrophil gelatinase-associated lipocalin (hNGAL), wild type, SEQ ID NO: 1 (Homo sapiens, UniProt P80188).
T2 construct: the mature hNGAL protein and the C-terminal Strep-tag II; OmpA signal peptide (N, cleaved yes); made in house; host or cells: E. coli BL21 or TG1-F- (periplasm), plasmid pNGAL14
T2 sequence (P80188 21-198): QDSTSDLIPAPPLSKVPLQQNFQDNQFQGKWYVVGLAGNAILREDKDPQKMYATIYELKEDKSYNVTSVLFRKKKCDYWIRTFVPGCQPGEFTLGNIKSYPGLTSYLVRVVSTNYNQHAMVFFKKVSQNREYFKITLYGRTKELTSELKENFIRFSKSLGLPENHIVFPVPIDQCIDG
Kind of experiment: ELISA, captured hNGAL variant with Me•DTPA conjugate. Type of experiment: binding. On the technique in general: In an ELISA, binding on a coated surface is turned into a signal by an enzyme label.

Experiment [4] concerns the target T3, hNGAL mutein Ya6, SEQ ID NO: 8 (Tb7.N9.N34 with Thr136Ser) (Homo sapiens, UniProt P80188, C107S/I100T/I61A/K154S/L56R/L90R/Q48H/R101M/S147Q/S88A/T156S/T165A/T74Q/V53Q/W99L/Y158L/Y72T).
T3 construct: the mature hNGAL protein and the C-terminal Strep-tag II; Strep-tag II (C); OmpA signal peptide (N, cleaved yes); made in house; host or cells: E. coli BL21 or TG1-F- (periplasm), plasmid pNGAL15
The experiment is described as follows: SPR (Biacore), immobilized Me•DTPA-RNase. Format: binding. The protocol:
(§1) Real time analysis of hNGAL variants was performed on a BIAcore X system (BIAcore, Uppsala, Sweden) using PBS/t (PBS containing 0.005% (v/v) Tween 20) as running buffer. 5 to 27 μg/ml solutions of the Me•DTPA-RNase conjugate in 10 mM Na-acetate, pH 5.0 were immobilized on a CM5 chip using standard amine coupling chemistry, resulting in a ligand density of 240 to 1800 resonance units (RU). The purified hNGAL variant was applied at a flow rate of 5 or 25 μl/min at concentrations of 0.5 up to 500 nM. The sensorgrams were corrected by subtraction of the corresponding signals measured for the control channel, which had been activated and blocked with ethanolamine. Kinetic data evaluation was performed by global fitting with BIAevaluation software V 3.0 (Karlsson et al. (1991) J. Immunol. Methods 145, 229-240). Alternatively, the plateau values at the end of the association phase (after 200 s) were plotted against the applied protein concentration and fitted as in the ELISA (see above) to determine the equilibrium dissociation constants (KO.
(§2) Finally, the hNGAL variants were analyzed by SPR using a Biacore CM-5 chip with the covalently attached Y-DTPA-RNaseA conjugate and applying the purified recombinant proteins (Table 3). […] The improved KD values result primarily from slower ligand dissociation.
(SPR reads the build-up and loss of mass on a sensor chip optically.)

Experiment [5] addresses T4, hNGAL mutein Tb7.N9.N34, SEQ ID NO: 7 (Tb7.N9 + S127Q) (Homo sapiens, UniProt P80188, C107S/I100T/I61A/K154S/L56R/L90R/Q48H/R101M/S147Q/S88A/T165A/T74Q/V53Q/W99L/Y158L/Y72T).
T4 construct: the mature hNGAL protein and the C-terminal Strep-tag II; Strep-tag II (C); OmpA signal peptide (N, cleaved yes); made in house; host or cells: E. coli BL21 or TG1-F- (periplasm), plasmid pNGAL15
The experiment is described as follows: SPR (Biacore), immobilized Me•DTPA-RNase. Type of experiment: binding. The protocol: as §1, §2

For experiment [6], the target named is T5, hNGAL mutein Tb7, SEQ ID NO: 2 (Gln28His, Val33Gln, Leu36Arg, Ile41Ala, Tyr52Thr, Thr54Gln, Ser68Ala, Leu70Arg, Trp79Ala, Arg81Met, Cys87Ser, Lys134Ser, Tyr138L (Homo sapiens, UniProt P80188, C107S/I61A/K154S/L56R/L90R/Q48H/R101M/S88A/T165A/T74Q/V53Q/W99A/Y158L/Y72T)).
T5 construct: the mature hNGAL protein and the C-terminal Strep-tag II; OmpA signal peptide (N, cleaved yes); made in house; host or cells: E. coli BL21 or TG1-F- (periplasm), plasmid pNGAL15
T5 sequence (P80188 21-198 Q48H/V53Q/L56R/I61A/Y72T/T74Q/S88A/L90R/W99A/R101M/C107S/K154S/Y158L/T165A): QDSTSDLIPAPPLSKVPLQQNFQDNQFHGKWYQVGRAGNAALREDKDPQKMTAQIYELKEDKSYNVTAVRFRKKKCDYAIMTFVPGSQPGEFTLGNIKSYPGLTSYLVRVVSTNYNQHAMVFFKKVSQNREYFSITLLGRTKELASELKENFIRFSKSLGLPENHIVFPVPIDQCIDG
Kind of experiment: SPR (Biacore), immobilized Me•DTPA-RNase. Format: binding. The protocol: as §1, §2

For experiment [7], the target named is T6, hNGAL mutein Yd5, SEQ ID NO: 9 (Tb7.N9.N34 + D77E/T136S) (Homo sapiens, UniProt P80188, C107S/D97E/I100T/I61A/K154S/L56R/L90R/Q48H/R101M/S147Q/S88A/T156S/T165A/T74Q/V53Q/W99L/Y158L/Y72T).
T6 construct: the mature hNGAL protein and the C-terminal Strep-tag II; OmpA signal peptide (N, cleaved yes); made in house; host or cells: E. coli BL21 or TG1-F- (periplasm), plasmid pNGAL15
T6 sequence (P80188 21-198 with the stated changes): as the sequence (P80188 21-198 Q48H/V53Q/L56R/I61A/Y72T/T74Q/S88A/L90R/W99A/R101M/C107S/K154S/Y158L/T165A) above, with D77E, A79L, I80T, S127Q, T136S counted along it
Kind of experiment: SPR (Biacore), immobilized Me•DTPA-RNase. Type of experiment: binding. The procedure:
as §1, §2

The target in experiment [8] is T7, hNGAL mutein Tb7.N9, SEQ ID NO: 6 (Tb7 + A79L/I80T) (Homo sapiens, UniProt P80188, C107S/I100T/I61A/K154S/L56R/L90R/Q48H/R101M/S88A/T165A/T74Q/V53Q/W99L/Y158L/Y72T).
T7 construct: the mature hNGAL protein and the C-terminal Strep-tag II; OmpA signal peptide (N, cleaved yes); made in house; host or cells: E. coli BL21 or TG1-F- (periplasm), plasmid pNGAL15
T7 sequence (P80188 21-198 Q48H/V53Q/L56R/I61A/Y72T/T74Q/S88A/L90R/W99L/I100T/R101M/C107S/K154S/Y158L/T165A): as the sequence (P80188 21-198 Q48H/V53Q/L56R/I61A/Y72T/T74Q/S88A/L90R/W99A/R101M/C107S/K154S/Y158L/T165A) above, with A79L, I80T counted along it
The experiment is described as follows: SPR (Biacore), immobilized Me•DTPA-RNase. Format: binding. The protocol: as §1, §2

The target of experiment [9] is T8, hNGAL mutein Tb7, SEQ ID NO: 2 (Homo sapiens, UniProt P80188, C107S/I61A/K154S/L56R/L90R/Q48H/R101M/S88A/T165A/T74Q/V53Q/W99A/Y158L/Y72T).
T8 construct: the mature hNGAL protein and the C-terminal Strep-tag II; OmpA signal peptide (N, cleaved yes); made in house; host or cells: E. coli BL21 or TG1-F- (periplasm), plasmid pNGAL15
T8 sequence (P80188 21-198 Q48H/V53Q/L56R/I61A/Y72T/T74Q/S88A/L90R/W99A/R101M/C107S/K154S/Y158L/T165A): as the sequence (P80188 21-198 Q48H/V53Q/L56R/I61A/Y72T/T74Q/S88A/L90R/W99A/R101M/C107S/K154S/Y158L/T165A) above
The experiment is described as follows: ELISA, captured hNGAL variant with Me•DTPA conjugate. Type of experiment: binding. The settings on record: Tb•DTPA-RNase A conjugate, read-out: apparent affinity.

The mark [10] stands for this setting: 5 μl/min, from the kinetic analysis, read-out: KD.
Where [11] appears, read: equilibrium analysis, read-out: Kd/eq.

Sequence of human neutrophil gelatinase-associated lipocalin (hNGAL, Lcn2, P80188), wild type (P80188 21-198, one chain of several): as the sequence (P80188 21-198) above
T3 sequence (P80188 21-198 with the stated changes): as the sequence (P80188 21-198 Q48H/V53Q/L56R/I61A/Y72T/T74Q/S88A/L90R/W99A/R101M/C107S/K154S/Y158L/T165A) above, with A79L, I80T, S127Q, T136S counted along it
T4 sequence (P80188 21-198 with the stated changes): as the sequence (P80188 21-198 Q48H/V53Q/L56R/I61A/Y72T/T74Q/S88A/L90R/W99A/R101M/C107S/K154S/Y158L/T165A) above, with A79L, I80T, S127Q counted along it

Take `O=C(N[C@H]1COC(=O)[C@@H](NC(=O)c2cccc(O)c2O)COC(=O)[C@@H](NC(=O)c2cccc(O)c2O)COC1=O)c1cccc(O)c1O.[Fe+3]` [Fe^3+-enterobactin, enterobactin]: the Kd in experiment [1] (read-out: dissociation constant (KD)) was 0.4 nM.

As to `Nc1ccc(C[C@H](CN(CC(=O)O)[C@H]2CCCC[C@@H]2N(CC(=O)O)CC(=O)O)N(CC(=O)O)CC(=O)O)cc1.[Gd+3]` [Me•p-NH2-Bn-CHX-A″-DTPA (Gd^3+), [(R)-2-amino-3-(4-aminophenyl)propyl]-trans-(S,S)-cyclohexane-1,2-diamine-pentaacetic acid], in [2], the Kd is 3.6 ± 0.24 nM.

For the molecule `Nc1ccc(C[C@H](CN(CC(=O)O)[C@H]2CCCC[C@@H]2N(CC(=O)O)CC(=O)O)N(CC(=O)O)CC(=O)O)cc1.[In+3]` [Me•p-NH2-Bn-CHX-A″-DTPA (In^3+), [(R)-2-amino-3-(4-aminophenyl)propyl]-trans-(S,S)-cyclohexane-1,2-diamine-pentaacetic acid], the Kd in experiment [2] was 44.7 ± 2.5 nM.

On to `Nc1ccc(C[C@H](CN(CC(=O)O)[C@H]2CCCC[C@@H]2N(CC(=O)O)CC(=O)O)N(CC(=O)O)CC(=O)O)cc1.[Tb+3]` [Me•p-NH2-Bn-CHX-A″-DTPA (Tb^3+), [(R)-2-amino-3-(4-aminophenyl)propyl]-trans-(S,S)-cyclohexane-1,2-diamine-pentaacetic acid], for which, in experiment [2], the Kd was 2.9 ± 0.17 nM.

Regarding `C[C@H]1OC(=O)[C@@H](NC(=O)CNC(=O)c2cccc(O)c2O)[C@@H](C)OC(=O)[C@@H](NC(=O)CNC(=O)c2cccc(O)c2O)[C@@H](C)OC(=O)[C@H]1NC(=O)CNC(=O)c1cccc(O)c1O` [bacillibactin], the “binding” value in experiment [1] was “forms stable complexes”.

As to `O=C(CC(O)(CC(=O)NCCCCNCCCNC(=O)c1ccc(O)c(O)c1)C(=O)O)NCCCCNCCCNC(=O)c1ccc(O)c(O)c1` [petrobactin], in [1], the “binding” value is recorded as “does not bind”.

B1: Tb^3+•DTPA-RNase: p-SCN-Bn-CHX-A″-DTPA covalently coupled to bovine ribonuclease A (about 1:1), charged with Tb^3+ (conjugate, UniProt P61823 27-150, looked up)
Ribonuclease pancreatic: KETAAAKFERQHMDSSTSAASSSNYCNQMMKSRNLTKDRCKPVNTFVHESLADVQAVCSQKNVACKNGQTNCYQSYSTMSITDCRETGSSKYPNCAYKTTQANKHIIVACEGNPYVPVHFDASV
modifications: CHX-A''-DTPA chelate with Tb3+
Take B1: the binding activity entry in [3] is listed as “no measurable binding activity”. The koff was 0.00296 s⁻¹ in [4] (5 μl/min); 0.0114 s⁻¹ in experiment [5] (5 μl/min); 0.0401 s⁻¹ in experiment [6] (5 μl/min); 0.00246 s⁻¹ in experiment [7] (5 μl/min); 0.0105 s⁻¹ in experiment [8] (5 μl/min). Further, the Kd in experiment [4] (setting [10]) turned out to be 2.39 nM; in experiment [4] (setting [11]) it was 5 ± 0.22 nM; in experiment [5] (setting [10]) it was 15.3 nM; in experiment [5] (setting [11]) it was 21 ± 2.3 nM; in experiment [6] (setting [10]) it was 74.9 nM; in experiment [6] (from concentration-dependent saturation values in an equilibrium analysis, read-out: Kd/eq), 50 ± 6.5 nM. Further, the Kd in experiment [7] (setting [10]) amounted to 2.34 nM; in experiment [7] (setting [11]) it was 3.8 ± 0.15 nM; in experiment [8] (setting [10]), 15.2 nM; in [8] (setting [11]), 25 ± 2.7 nM; in [9] it was 74.5 ± 7.8 nM. Further, the kon was 746000 M⁻¹ s⁻¹ in experiment [5] (5 μl/min), 535000 M⁻¹ s⁻¹ in [6] (5 μl/min), 1e+06 M⁻¹ s⁻¹ in experiment [7] (5 μl/min) and 689000 M⁻¹ s⁻¹ in experiment [8] (5 μl/min).
